From patent US20250163127A1
Where “and” joins values, the source holds several entries; their conditions need not be identical. Identical values can stand only once.

Legend:
TIGIT (human) [1] = target: T1, TIGIT (human) (UniProt Q495A1); experiment: flow cytometry, TIGIT-transfected Expi293 cells
T1 sequence: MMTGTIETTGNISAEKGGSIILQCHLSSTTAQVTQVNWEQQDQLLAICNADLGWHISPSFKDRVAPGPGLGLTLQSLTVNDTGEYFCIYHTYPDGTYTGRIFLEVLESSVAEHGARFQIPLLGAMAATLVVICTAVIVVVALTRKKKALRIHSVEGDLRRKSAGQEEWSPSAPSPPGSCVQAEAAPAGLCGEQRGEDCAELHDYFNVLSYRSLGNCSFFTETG

CD96 (human) [2] = target: T2, CD96 (human) (UniProt P40200); experiment: flow cytometry, CD96-transfected Expi293 cells
T2 sequence: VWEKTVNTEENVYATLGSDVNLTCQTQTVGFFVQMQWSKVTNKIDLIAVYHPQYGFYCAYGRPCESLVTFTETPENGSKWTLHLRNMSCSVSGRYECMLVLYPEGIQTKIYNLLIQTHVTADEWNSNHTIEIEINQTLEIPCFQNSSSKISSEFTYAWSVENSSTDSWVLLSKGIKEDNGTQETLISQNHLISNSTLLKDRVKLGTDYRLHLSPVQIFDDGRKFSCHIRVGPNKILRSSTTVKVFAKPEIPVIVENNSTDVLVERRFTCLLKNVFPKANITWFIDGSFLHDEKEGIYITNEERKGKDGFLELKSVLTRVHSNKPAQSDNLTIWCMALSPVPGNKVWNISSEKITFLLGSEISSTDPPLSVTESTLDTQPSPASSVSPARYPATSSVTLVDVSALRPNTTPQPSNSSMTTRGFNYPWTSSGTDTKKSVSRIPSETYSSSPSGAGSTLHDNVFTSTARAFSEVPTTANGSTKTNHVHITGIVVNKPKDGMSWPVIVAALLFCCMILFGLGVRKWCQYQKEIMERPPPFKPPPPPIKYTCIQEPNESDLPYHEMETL

CD226 (human) [3] = target: T3, CD226 (human) (UniProt Q15762); experiment: flow cytometry, CD226-transfected Expi293 cells
T3 sequence: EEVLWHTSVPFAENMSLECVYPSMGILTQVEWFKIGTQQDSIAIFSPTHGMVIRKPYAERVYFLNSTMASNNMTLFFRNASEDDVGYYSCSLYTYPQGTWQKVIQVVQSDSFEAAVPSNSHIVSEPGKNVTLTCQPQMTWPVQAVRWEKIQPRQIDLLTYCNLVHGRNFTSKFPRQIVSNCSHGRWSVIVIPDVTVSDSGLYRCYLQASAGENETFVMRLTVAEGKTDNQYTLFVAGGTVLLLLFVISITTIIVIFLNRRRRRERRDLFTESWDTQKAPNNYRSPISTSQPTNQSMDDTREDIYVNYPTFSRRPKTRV

CD96 (human) [4] = target: T2, CD96 (human); experiment: flow cytometry, CD96-transfected Expi293 cells; ratio to wild-type CD155
human CTLA-4 (human) = experiment: flow cytometry, CHO/CTLA-4 cells, 100 nM, anti-Flag
human PD-1 (human) [5] = target: human PD-1 (human) (UniProt Q15116); experiment: flow cytometry, CHO/PD-1 cells, 100 nM, anti-Flag
human ICOSL (human) = target: T4, human ICOSL (human); experiment: flow cytometry, cells expressing human ICOSL
T4 sequence: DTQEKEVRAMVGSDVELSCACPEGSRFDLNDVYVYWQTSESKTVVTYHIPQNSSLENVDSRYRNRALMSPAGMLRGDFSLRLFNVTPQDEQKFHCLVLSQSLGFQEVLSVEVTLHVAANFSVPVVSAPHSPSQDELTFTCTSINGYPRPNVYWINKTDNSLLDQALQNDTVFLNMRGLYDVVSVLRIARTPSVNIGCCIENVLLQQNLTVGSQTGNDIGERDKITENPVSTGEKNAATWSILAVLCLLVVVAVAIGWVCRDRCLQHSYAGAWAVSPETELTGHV

CD80 (human) [6] = experiment: flow cytometry, cells expressing CD80, 20 nM
CD112R (human) [7] = target: CD112R (human) (UniProt Q6DKI7); experiment: flow cytometry, Fc fusion on Expi293 cells transfected with full-length human CD112R
CD226 (human) [8] = target: T3, CD226 (human); experiment: flow cytometry, Fc fusion on Expi293 cells transfected with full-length human CD226
TIGIT (human) [9] = target: T1, TIGIT (human); experiment: flow cytometry, Fc fusion on Expi293 cells transfected with full-length human TIGIT
CD86 (human) = CD86 (human) (UniProt P42081); experiment: flow cytometry, cells expressing the partner
CD80 (human) [10] = target: CD80 (human) (UniProt P33681); experiment: flow cytometry, cells expressing the partner
ICOSL (human) = target: T5, ICOSL (human) (UniProt O75144); experiment: flow cytometry, cells expressing the partner
T5 sequence: T4 sequence

CD226 (human) [11] = target: T3, CD226 (human); experiment: flow cytometry, transfected HEK293
CD96 (human) [12] = target: T2, CD96 (human); experiment: flow cytometry, transfected HEK293
CD112R (human) [13] = target: CD112R (human) (UniProt Q6DKI7); experiment: flow cytometry, transfected HEK293
TIGIT (human) [14] = target: T1, TIGIT (human); experiment: flow cytometry, transfected HEK293
[15] = target: CTLA-4, full-length, expressed on transfected cells (Homo sapiens (Human)) (UniProt P16410); experiment: flow cytometry, cells expressing target
[16] = target: ICOS, full-length, expressed on transfected cells (Homo sapiens (Human)) (UniProt Q9Y6W8); experiment: flow cytometry, cells expressing target
[17] = target: CD28, full-length, expressed on transfected cells (Homo sapiens (Human)) (UniProt P10747); experiment: flow cytometry, cells expressing target
CD28 (human) [18] = target: CD28 (human) (UniProt P10747); experiment: flow cytometry, Jurkat cells (endogenous CD28), 100 nM, anti-Flag
human PD-1 (human) [19] = target: human PD-1 (human) (UniProt Q15116); experiment: flow cytometry, cells expressing PD-1, 20 nM
TIGIT (human) [20] = target: T1, TIGIT (human); experiment: flow cytometry on transfected HEK293 cells, 100 nM
[21] = target: ICOS (Homo sapiens (Human)) (UniProt Q9Y6W8); experiment: flow cytometry, transfected cells
CD28 (human) [22] = target: CD28 (human) (UniProt P10747); experiment: flow cytometry, transfected cells
[23] = target: CTLA-4 (Homo sapiens (Human)) (UniProt P16410); experiment: flow cytometry, transfected cells
human PD-1 (human) [24] = target: human PD-1 (human) (UniProt Q15116)
[25] = target: ICOS as used in the OD read-out of Table E15A (Homo sapiens (Human)) (UniProt Q9Y6W8); experiment: OD read-out, format not told

Chain of CD112R (human) (Q6DKI7 whole entry, the tested form may be a part): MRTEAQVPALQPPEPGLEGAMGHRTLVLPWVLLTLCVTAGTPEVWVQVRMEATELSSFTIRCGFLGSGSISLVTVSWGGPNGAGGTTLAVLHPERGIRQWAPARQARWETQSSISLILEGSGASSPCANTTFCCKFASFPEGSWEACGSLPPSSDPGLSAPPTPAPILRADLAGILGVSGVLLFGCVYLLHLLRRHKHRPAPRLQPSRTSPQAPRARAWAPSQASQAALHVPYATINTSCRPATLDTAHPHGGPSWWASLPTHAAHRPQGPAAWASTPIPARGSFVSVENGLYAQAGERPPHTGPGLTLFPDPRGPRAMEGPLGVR
Chain of human PD-1 (human) (Q15116 25-288): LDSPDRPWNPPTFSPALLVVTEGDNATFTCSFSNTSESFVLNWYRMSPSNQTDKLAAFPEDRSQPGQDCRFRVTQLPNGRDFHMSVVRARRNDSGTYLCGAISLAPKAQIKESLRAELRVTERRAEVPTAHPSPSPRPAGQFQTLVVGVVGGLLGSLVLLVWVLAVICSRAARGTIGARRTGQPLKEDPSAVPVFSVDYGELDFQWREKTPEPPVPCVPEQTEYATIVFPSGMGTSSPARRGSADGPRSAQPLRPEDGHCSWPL
Chain of CD80 (human) (UniProt P33681) (P33681 35-288): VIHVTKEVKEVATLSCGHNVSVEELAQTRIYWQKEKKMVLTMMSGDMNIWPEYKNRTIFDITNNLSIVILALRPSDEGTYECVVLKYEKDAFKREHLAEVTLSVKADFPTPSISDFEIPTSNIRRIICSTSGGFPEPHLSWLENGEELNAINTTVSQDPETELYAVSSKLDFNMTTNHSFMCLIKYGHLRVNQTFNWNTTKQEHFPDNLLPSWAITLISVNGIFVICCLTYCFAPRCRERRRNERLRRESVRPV
Chain of Wild type CD155 IgV-Fc (Fc fusion) (chain): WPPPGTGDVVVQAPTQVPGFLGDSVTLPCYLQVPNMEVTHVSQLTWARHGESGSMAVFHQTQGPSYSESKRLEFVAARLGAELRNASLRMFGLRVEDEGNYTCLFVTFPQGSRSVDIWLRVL
Chain of Wild-type PD-L1 (IgV, SEQ ID NO 309) (ligand) (chain): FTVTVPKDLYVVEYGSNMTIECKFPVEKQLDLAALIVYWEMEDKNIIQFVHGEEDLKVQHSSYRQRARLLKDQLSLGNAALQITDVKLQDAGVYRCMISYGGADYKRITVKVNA
Chain of CTLA-4 (Homo sapiens (Human)) (P16410 36-223): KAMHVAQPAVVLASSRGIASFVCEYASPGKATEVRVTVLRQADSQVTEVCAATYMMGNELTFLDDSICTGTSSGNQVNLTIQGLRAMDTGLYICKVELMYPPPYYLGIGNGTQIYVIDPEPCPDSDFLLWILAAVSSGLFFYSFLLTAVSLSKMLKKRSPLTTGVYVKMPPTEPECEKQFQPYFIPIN
Chain of human CTLA-4 (human) (chain, as listed by the source): as the sequence (P16410 36-223) above
Chain of CD80 (human) (chain, as listed by the source): as the sequence (P33681 35-288) above
Chain of ICOS (Homo sapiens (Human)) (Q9Y6W8 21-199 limits assumed): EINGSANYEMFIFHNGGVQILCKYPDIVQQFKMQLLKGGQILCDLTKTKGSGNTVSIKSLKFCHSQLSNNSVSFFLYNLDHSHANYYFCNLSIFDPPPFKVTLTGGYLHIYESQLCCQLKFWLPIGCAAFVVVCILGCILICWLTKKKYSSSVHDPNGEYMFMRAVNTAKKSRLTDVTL
Chain of Wildtype CD112-IgV Fc (Fc fusion) (chain): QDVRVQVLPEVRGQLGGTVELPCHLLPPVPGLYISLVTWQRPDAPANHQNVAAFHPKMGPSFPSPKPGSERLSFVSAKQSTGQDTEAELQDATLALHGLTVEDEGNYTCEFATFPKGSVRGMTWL
Chain of CTLA-4, full-length, expressed on transfected cells (Homo sapiens (Human)) (P16410 36-223): as the sequence (P16410 36-223) above
Chain of ICOS, full-length, expressed on transfected cells (Homo sapiens (Human)) (Q9Y6W8 21-199 limits assumed): as the sequence (Q9Y6W8 21-199 limits assumed) above

Substance: CD155 IgV-Fc P18T, F91S, R94H (Fc fusion)
- MFI (TIGIT (human) [1]): 2940
- MFI (CD96 (human) [2]): 2510
- MFI (CD226 (human) [3]): 3590
- MFI parental ratio (CD96 (human) [4]): 0.8

Substance: PD-L2 1417 (monomeric variant PD-L2 IgV H15Q/T47A/K65R/S67L/Q82R/V89D) (ligand)
- MFI (human CTLA-4 (human)): 152
- MFI (human PD-1 (human) [5]): 26200

Substance: variant CTLA-4 ECD-Fc L12F/R16H/G29W/M56T/S72G/L98Q/Y105L (Fc fusion)
- MFI (human ICOSL (human)): 613 MFI

Substance: variant PD-L1 G15A/V129D Fc fusion
- MFI at 20 nM (CD80 (human) [6]): 128 MFI

Substance: CD112 N106Y, A112V (Fc fusion)
- MFI (CD112R (human) [7]): 1970 MFI
- MFI parental ratio (parental ratio) (CD112R (human) [7]): 1.36
- MFI (CD226 (human) [8]): 15300 MFI
- MFI parental ratio (parental ratio) (CD226 (human) [8]): 0.06
- MFI (TIGIT (human) [9]): 6040 MFI

Substance: CTLA-4 ECD-Fc L12P/A26T (Fc fusion)
- MFI (CD86 (human)): 276000 MFI
- MFI ratio to WT (ΔWT) (CD86 (human)): 0.4 fold
- MFI (CD80 (human) [10]): 1024 MFI
- MFI (ICOSL (human)): 928 MFI

Substance: CD112 IgV-Fc Y33H/A112V (Fc fusion)
- Fold Increase to WT IgV (CD226 (human) [11]): 1.28 fold
- MFI at 20 nM (CD226 (human) [11]): 13800
- Fold Increase to WT IgV (CD96 (human) [12]): 1.25 fold
- MFI at 20 nM (CD96 (human) [12]): 3120
- Fold Increase to WT IgV (CD112R (human) [13]): 0.69 fold
- MFI at 20 nM (CD112R (human) [13]): 1150
- Fold Increase to WT IgV (TIGIT (human) [14]): 5.09 fold
- MFI at 20 nM (TIGIT (human) [14]): 178000

Substance: ICOSL ECD-Fc F138L/L203P (Fc fusion)
- MFI [15]: 2150 MFI
- MFI [16]: 53800 MFI
- MFI [17]: 1510 MFI

Substance: Wild-type PD-L1 (IgV, SEQ ID NO 309) (ligand)
- MFI (CD28 (human) [18]): 716
- MFI (human CTLA-4 (human)): 97.4

Substance: variant PD-L1 V129D/H202Q Fc fusion
- MFI at 20 nM (human PD-1 (human) [19]): 2000 MFI

Substance: Wild type CD155 IgV-Fc (Fc fusion)
- MFI (TIGIT (human) [1]): 2720
- MFI (CD96 (human) [2]): 3080
- MFI (CD226 (human) [3]): 3720

Substance: CTLA-4 ECD-Fc L12P/A26T/L63P (Fc fusion)
- MFI (CD86 (human)): 500000 MFI
- MFI (CD80 (human) [10]): 2400 MFI
- MFI (ICOSL (human)): 891 MFI

Substance: Wildtype CD112-IgV Fc (Fc fusion)
- MFI at 100 nM (TIGIT (human) [20]): 82400 MFI

Substance: CD112 IgV-Fc A112V (Fc fusion)
- MFI at 20 nM (CD112R (human) [13]): 1140 and 1110
- MFI at 20 nM (TIGIT (human) [14]): 69700

Substance: variant PD-L1 V93E/V129D Fc fusion
- MFI at 20 nM (CD80 (human) [6]): 150 MFI

Substance: ICOSL-Fc N52H/N57Y/Q100R (Fc fusion)
- MFI [21]: 200000 MFI
- MFI ratio to WT (ΔWT) [21]: 0.94 fold
- MFI (CD28 (human) [22]): 142000 MFI
- MFI ratio to WT (ΔWT) (CD28 (human) [22]): 6.4 fold
- MFI [23]: 817000 MFI
- MFI ratio to WT (ΔWT) [23]: 2.47 fold

Substance: CTLA-4 ECD-Fc L12P/A26T/L63P/L98Q/Y105L (Fc fusion)
- MFI (CD86 (human)): 762000 MFI
- MFI (CD80 (human) [10]): 829 MFI
- MFI (ICOSL (human)): 873 MFI

Substance: variant PD-L2 IgV H15Q/T47A/H69L/Q82R/V89D Fc fusion
- IFN gamma levels pg/mL (MLR) (human PD-1 (human) [24]): 1730 pg/mL

Substance: ICOSL ECD-Fc N52H/N57Y/Q100P (Fc fusion)
- MFI [17]: 447 MFI
- parental ratio [17]: 24.8 ratio to WT
- OD [25]: 1.57 OD

Substance: variant PD-L1 G15A/I36T/V129D/R195G Fc fusion
- MFI at 20 nM (human PD-1 (human) [19]): 125 MFI

Substance: ICOSL ECD-Fc N52S/S130G/Y152C (Fc fusion)
- MFI [17]: 24 MFI
- OD [25]: 0.16 OD
- parental ratio [25]: 0.19 ratio to WT

Substance: variant CTLA-4 ECD-Fc M56T/L98Q/Y105L (Fc fusion)
- MFI (human ICOSL (human)): 700 MFI
